Measurements from patent US20260153518A1, “DIAGNOSIS OF IMMUNE-MEDIATED INFLAMMATORY DISEASES USING MMP12 AS INDICATOR, AND MEDICINE FOR TREATING IMMUNE-MEDIATED INFLAMMATORY DISEASES VIA MMP12 INHIBITION” (KEIO UNIVERSITY, priority 2022, published 2026).
Where no end group is shown, it is not given here.

What was measured:
[1] = test system: SCG/ThpNkc mice (ANCA-associated vasculitis model mice); experiment: Therapeutic effects of MMP12 inhibitors on ANCA-associated vasculitis model mice; type: in vivo
Description: SCG/ThpNkc mice (see Proc Natl Acad Sci USA. 1993 Apr. 15; 90(8): 3413-7.) are ANCA-associated vasculitis model mice created by crossing and interbreeding two strains, MRL/Ipr and BXSB, and can be supplied from Laboratory Animal Resource Bank at the National Institute of Biomedical Innovation, Health and Nutrition (resource number: nbio133).
In this experiment, MMP408 (CAS No. 1258003-93-8), which is an MMP12 selective inhibitor, was administered to male SCG/ThpNkc mice, and the therapeutic effects of MMP408 were examined.
The SCG/ThpNkc mice were reared in cages with normal solid food and water. At weeks of age, it was confirmed that the mice had positive occult blood in their urine. From 11 weeks of age, MMP408 was administered via the intraperitoneal route at a dose of 100 μg twice a week. Urine analysis was performed at 15 and 20 weeks of age, and the mice were sacrificed at 20 weeks of age. The number of mice in an MMP408 non-administration group and the number of mice in an MMP408 administration group were n=25 and n=4, respectively.

h MMP12 = h MMP12 (Homo sapiens, UniProt P39900); experiment: Evaluation of cleavage of candidate peptides by MMP12 (UPLC); type: biochemical; settings: for Number of cleavage peaks, Test: UPLC after incubation with h MMP12, 37° C.; for Number of cleavage peaks, Test / Cleavage rate (%) of each candidate peptide by MMP12: 16 hours; for Cleavage rate (%) of each candidate peptide by MMP12: activated h MMP12 2.0 ng/μL mixed 1:1 with 40 μM peptide, 37° C., UPLC peak area before/after, 440 nm; for cleavage rate by MMP12 (in words: low / medium / high) / cleavage site by MMP12: summary of Table 3
Description: The evaluation of cleavage of candidate peptides by MMP12 was performed as follows.
On the first day, h MMP12 was diluted to 50 μg/mL with an assay buffer. APMA was added to the h MMP12 solution to adjust the final concentration of APMA to 1 mM, and the solution was incubated at 37° C. for 24 hours to activate h MMP12.
On the second day, activated h MMP12 was diluted to 2 ng/μL (=40 nM) with an assay buffer The substrate (peptide) was diluted to 40 μM with an assay buffer. 50 μL of h MMP12 (2.0 ng/μL) and 50 μL of the substrate (peptide) were mixed and incubated at 37° C. for 16 hours. A blank was prepared by mixing equal volumes of an assay buffer and the substrate (peptide).
On the third day, 100 μL of acetonitrile was added to the mixture from the second day. After centrifugation for 10 minutes, the supernatant was collected, and 10 μL of the supernatant was analyzed using ultra high performance liquid chromatography (UPLC).
UPLC was performed under the conditions of measurement wavelength: 440 nm, flow rate: 0.4 mL/min, A: H2O with 0.1% TFA, B: CH3CN with 0.1% TFA, and elution conditions 10% B→70% B in 9.5 min, and as a result, it was confirmed that the two positive controls were cleaved by MMP12 (data is not shown).
For the candidate peptide Nos, 2, 4 to 7, 11, 15 to 17, 19, 20, and 22, the evaluation of cleavage by MMP12 was performed in the same manner as for the positive controls. Cleavage by MMP12 was confirmed for all the peptides tested. For Nos. 2 and 4 to 7, the cleavage sites were L-Q and L-R/K, but the cleavage rates were different. […] For Nos. 11, 15, 17, 20, and 22, the cleavage site was E-L, but the cleavage rates were different. The cleavage rate of No. 11 was high and the cleavage rate of No. 15 was low even though these candidate peptides have E-L-l. The cleavage rates of Nos. 17, 20, and 22, which have E-L-R, were high.

h MMP12, sequence (P39900 106-470): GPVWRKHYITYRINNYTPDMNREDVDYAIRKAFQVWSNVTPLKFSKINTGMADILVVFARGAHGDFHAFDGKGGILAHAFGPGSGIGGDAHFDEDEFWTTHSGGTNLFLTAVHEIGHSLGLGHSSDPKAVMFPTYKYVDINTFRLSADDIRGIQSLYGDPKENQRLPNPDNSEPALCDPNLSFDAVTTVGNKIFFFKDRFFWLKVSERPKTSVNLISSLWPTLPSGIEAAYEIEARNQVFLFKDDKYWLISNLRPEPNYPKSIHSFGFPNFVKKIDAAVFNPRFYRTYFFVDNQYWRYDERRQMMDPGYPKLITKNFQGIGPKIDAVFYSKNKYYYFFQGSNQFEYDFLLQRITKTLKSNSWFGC

Row | Number of cleavage peaks, Test (h MMP12) | Cleavage rate (%) of each candidate peptide by MMP12 (h MMP12) [%] | cleavage rate by MMP12 (in words: low / medium / high) (h MMP12) | cleavage site by MMP12 (h MMP12) | Molecule | urine occult blood ([1]; MMP408 administration group, week 20, FIG. 12 (n=2)) | mice still alive at 20 weeks (survival curve) ([1]; male SCG/ThpNkc mice, MMP408 100 μg intraperitoneal twice a week from 11 weeks of age, n=4, log-rank test p=0.037 vs non-administration group (92% died by 20 weeks))
1 |  |  |  |  | COC(=O)Nc1ccc2oc3cc(S(=O)(=O)N[C@@H](C(=O)O)C(C)C)ccc3c2c1 [MMP408] | improved | 2 out of 4
2 | 1 | 98.6 | high | E-L | APIANELRSQSLQT (not fully specified; also: 5-carboxyfluorescein label) [No. 17] |  | 
3 | 1 | 26.0 |  |  | APRIKKIVQKKLAG (not fully specified; also: 5-carboxyfluorescein label) [No. 19] |  | 
4 | 2 | 100.0 | high | E-L | ASVVTELRSQSLQT (not fully specified; also: 5-carboxyfluorescein label) [No. 20] |  | 
5 | 1 | 56.0 | medium |  | DKVWQDYIKDMKEN [No. 02] |  | 
6 | 2 | 100.0 | high | E-L | LNVQRKAIHELIQV (not fully specified; also: 5-carboxyfluorescein label) [No. 11] |  | 
7 | 3 | 100.0 | high | E-L | PAAAVLRELRSVS (not fully specified; also: 5-carboxyfluorescein label) [No. 22] |  | 
8 | 1 | 61.7 |  |  | PESSLRKRKRSR (not fully specified; also: 5-carboxyfluorescein label) [No. 16] |  | 
9 | 1 | 10.5 | low | E-L | RQAFNEKIRVVHQL (not fully specified; also: 5-carboxyfluorescein label) [No. 15] |  | 
10 | 1 | 90.3 | medium to high |  | SFSSSRNLQERL (not fully specified; also: 5-carboxyfluorescein label) [No. 06] |  | 
11 | 1 | 53.5 | medium |  | SLSFSTNLQKRL (not fully specified; also: 5-carboxyfluorescein label) [No. 04] |  | 
12 | 1 | 38.5 | medium to high |  | SRNLQERLRRKE (not fully specified; also: 5-carboxyfluorescein label) [No. 05] |  | 
13 | 2 | 70.4 | medium to high |  | STNLQESLRRKE (not fully specified; also: 5-carboxyfluorescein label) [No. 07] |  | 
